This is an account of results in the supplement of paper PMC5998384.

The test system of data set [1] is HeLa Kyoto. Kind of data set: melting temperature (median over replicates), in situ; higher = more thermally stable.
Data set [2] has as its system HeLa Kyoto. Description: thermal stability score vs G1/S (z-score of summed log2 fold changes over temperatures); higher = more thermally stable than in G1/S.
For data set [3], the system named is HeLa Kyoto. Description: solubility in G1/S (NP-40 vs SDS abundance) (log2 ratio); higher = more soluble. To be noted: cell cycle stage: G1/S.
The subject of data set [4] is HeLa Kyoto. Kind of data set: solubility change mitosis vs G1/S (difference of NP-40 vs SDS log2 ratios) (log2 ratio difference); higher = more soluble in mitosis.
[5] abbreviates: cell cycle stage: early G1 (4.5 h after nocodazole release).
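Wherever melting temperature (median over replicates), in situ is given: HeLa Kyoto cells synchronized by double thymidine or nocodazole block, proteins quantified by TMT10plex mass spectrometry, three independent biological replicates.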
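Wherever solubility change mitosis vs G1/S (difference of NP-40 vs SDS log2 ratios) is given: synchronized HeLa Kyoto cells (double thymidine block for G1/S, nocodazole release for mitosis), protein amounts in NP-40 versus SDS lysates quantified by mass spectrometry, three biological replicates.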
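Wherever solubility in G1/S (NP-40 vs SDS abundance) is given: HeLa Kyoto cells arrested at G1/S by double thymidine block, proteins quantified by TMT10plex mass spectrometry in mild NP-40 versus SDS extracts, three biological replicates.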
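Wherever thermal stability score vs G1/S (z-score of summed log2 fold changes over temperatures) is given: synchronized HeLa Kyoto cells, proteins quantified by TMT10plex mass spectrometry, three biological replicates, mitosis taken 0.5 h after nocodazole release, G1/S directly after double thymidine block.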

As to “MSLQWTAVATFLYAEVFVVLLLCIPFISPKRWQKIFKSRLVELLVSYGNTFFVVLIVILVLLVIDAVREIRKYDDVTEKVNLQNNPGAMEHFHMKLFRAQRNLYIAGFSLLLSFLLRRLVTLISQQATLLASNEAFKKQAESASEAAKKYMEENDQLKKGAAVDGGKLDVGNAEVKLEEENRSLKADLQKLKDELASTKQKLEKAENQVLAMRKQSEGLTKEYDRLLEEHAKLQAAVDGPMDKKEE [BCAP31]”, the melting temperature in the data set on HeLa Kyoto [1] (cell cycle stage: G1/S) and with HeLa Kyoto [1] (cell cycle stage: mitosis) was 55.5 °C throughout. Further, the thermal stability score in the data set on HeLa Kyoto [2] (setting [5]) was -4.24; with HeLa Kyoto [2] (cell cycle stage: mitosis), -4.65. Besides, the “solubility in G1/S (log2)” value with HeLa Kyoto [3] is 0.132. The “solubility change mitosis (log2)” value with HeLa Kyoto [4] was -0.101.
Consider “MSLSSGASGGKGVDANPVETYDSGDEWDIGVGNLIIDLDADLEKDQQKLEMSGSKEVGIPAPNAVATLPDNIKFVTPVPGPQGKEGKSKSKRSKSGKDTSKPTPGTSLFTPSEGAASKKEVQGRSGDGANAGGLVAAIAPKGSEKAAKASRSVAGSKKEKENSSSKSKKERSEGVGTCSEKDPGVLQPVPLGGRGGQYDGSAGVDTGAVEPLGSIAIEPGAALNPLGTKPEPEEGENECRLLKKVKSEKMESPVSTPAVLPIHLLVPVVNNDISSPCEQIMVRTRSVGVNTCDVALATEPECLGPCEPGTSVNLEGIVWQETEDGMLVVNVTWRNKTYVGTLLDCTRHDWAPPRFCDSPTSDLEMRNGRGRGKRMRPNSNTPVNETATASDSKGTSNSSKTRAGANSKGRRGSQNSSEHRPPASSTSEDVKASPSSANKRKNKPLSDMELNSSSEDSKGSKRVRTNSMGSATGPLPGTKVEPTVLDRNCPSPVLIDCPHPNCNKKYKHINGLKYHQAHAHTDDDSKPEADGDSEYGEEPILHADLGSCNGASVSQKGSLSPARSATPKVRLVEPHSPSPSSKFSTKGLCKKKLSGEGDTDLGALSNDGSDDGPSVMDETSNDAFDSLERKCMEKEKCKKPSSLKPEKIPSKSLKSARPIAPAIPPQQIYTFQTATFTAASPGSSSGLTATVAQAMPNSPQLKPIQPKPTVMGEPFTVNPALTPAKDKKKKDKKKKESSKELESPLTPGKVCRAEEGKSPFRESSGDGMKMEGLLNGSSDPHQSRLASIKAEADKIYSFTDNAPSPSIGGSSRLENTTPTQPLTPLHVVTQNGAEASSVKTNSPAYSDISDAGEDGEGKVDSVKSKDAEQLVKEGAKKTLFPPQPQSKDSPYYQGFESYYSPSYAQSSPGALNPSSQAGVESQALKTKRDEEPESIEGKVKNDICEEKKPELSSSSQQPSVIQQRPNMYMQSLYYNQYAYVPPYGYSDQSYHTHLLSTNTAYRQQYEEQQKRQSLEQQQRGVDKKAEMGLKEREAALKEEWKQKPSIPPTLTKAPSLTDLVKSGPGKAKEPGADPAKSVIIPKLDDSSKLPGQAPEGLKVKLSDASHLSKEASEAKTGAECGRQAEMDPILWYRQEAEPRMWTYVYPAKYSDIKSEDERWKEERDRKLKEERSRSKDSVPKEDGKESTSSDCKLPTSEESRLGSKEPRPSVHVPVSSPLTQHQSYIPYMHGYSYSQSYDPNHPSYRSMPAVMMQNYPGSYLPSSYSFSPYGSKVSGGEDADKARASPSVTCKSSSESKALDILQQHASHYKSKSPTISDKTSQERDRGGCGVVGGGGSCSSVGGASGGERSVDRPRTSPSQRLMSTHHHHHHLGYSLLPAQYNLPYAAGLSSTAIVASQQGSTPSLYPPPRR [ZNF609]”, for which the melting temperature came to 49.9 °C in the data set with HeLa Kyoto [1] (cell cycle stage: G1/S) and 52.1 °C with HeLa Kyoto [1] (cell cycle stage: mitosis). For the same sequence, the thermal stability score with HeLa Kyoto [2] (setting [5]) was -1.11; in the data set on HeLa Kyoto [2] (cell cycle stage: mitosis), 2.18. The “solubility in G1/S (log2)” value in the data set with HeLa Kyoto [3] is 0.0412. Besides, in the data set with HeLa Kyoto [4], the “solubility change mitosis (log2)” value came to 0.204.
Consider “MSMPDAMPLPGVGEELKQAKEIEDAEKYSFMATVTKAPKKQIQFADDMQEFTKFPTKTGRRSLSRSISQSSTDSYSSAASYTDSSDDEVSPREKQQTNSKGSSNFCVKNIKQAEFGRREIEIAEQDMSALISLRKRAQGEKPLAGAKIVGCTHITAQTAVLIETLCALGAQCRWSACNIYSTQNEVAAALAEAGVAVFAWKGESEDDFWWCIDRCVNMDGWQANMILDDGGDLTHWVYKKYPNVFKKIRGIVEESVTGVHRLYQLSKAGKLCVPAMNVNDSVTKQKFDNLYCCRESILDGLKRTTDVMFGGKQVVVCGYGEVGKGCCAALKALGAIVYITEIDPICALQACMDGFRVVKLNEVIRQVDVVITCTGNKNVVTREHLDRMKNSCIVCNMGHSNTEIDVTSLRTPELTWERVRSQVDHVIWPDGKRVVLLAEGRLLNLSCSTVPTFVLSITATTQALALIELYNAPEGRYKQDVYLLPKKMDEYVASLHLPSFDAHLTELTDDQAKYLGLNKNGPFKPNYYRY [AHCYL1]”, for which the melting temperature in the data set on HeLa Kyoto [1] (cell cycle stage: G1/S) turned out to be 56.4 °C; in the data set on HeLa Kyoto [1] (cell cycle stage: mitosis), 54.6 °C. Further, the thermal stability score in the data set on HeLa Kyoto [2] (setting [5]) was -5.66; with HeLa Kyoto [2] (cell cycle stage: mitosis), -9.49. Also, the “solubility in G1/S (log2)” value with HeLa Kyoto [3] was -0.111. Besides, in the data set on HeLa Kyoto [4], the “solubility change mitosis (log2)” value was -0.119.
As for “MSNEVETSATNGQPDQQAAPKAPSKKEKKKGPEKTDEYLLARFKGDGVKYKAKLIGIDDVPDARGDKMSQDSMMKLKGMAAAGRSQGQHKQRIWVNISLSGIKIIDEKTGVIEHEHPVNKISFIARDVTDNRAFGYVCGGEGQHQFFAIKTGQQAEPLVVDLKDLFQVIYNVKKKEEEKKKIEEASKAVENGSEALMILDDQTNKLKSGVDQMDLFGDMSTPPDLNSPTESKDILLVDLNSEIDTNQNSLRENPFLTNGITSCSLPRPTPQASFLPENAFSANLNFFPTPNPDPFRDDPFTQPDQSTPSSFDSLKSPDQKKENSSSSSTPLSNGPLNGDVDYFGQQFDQISNRTGKQEAQAGPWPFSSSQTQPAVRTQNGVSEREQNGFSVKSSPNPFVGSPPKGLSIQNGVKQDLESSVQSSPHDSIAIIPPPQSTKPGRGRRTAKSSANDLLASDIFAPPVSEPSGQASPTGQPTALQPNPLDLFKTSAPAPVGPLVGLGGVTVTLPQAGPWNTASLVFNQSPSMAPGAMMGGQPSGFSQPVIFGTSPAVSGWNQPSPFAASTPPPVPVVWGPSASVAPNAWSTTSPLGNPFQSNIFPAPAVSTQPPSMHSSLLVTPPQPPPRAGPPKDISSDAFTALDPLGDKEIKDVKEMFKDFQLRQPPAVPARKGEQTSSGTLSAFASYFNSKVGIPQENADHDDFDANQLLNKINEPPKPAPRQVSLPVTKSTDNAFENPFFKDSFGSSQASVASSQPVSSEMYRDPFGNPFA [DAB2]”, the results for the melting temperature with HeLa Kyoto [1] (cell cycle stage: G1/S) and with HeLa Kyoto [1] (cell cycle stage: mitosis) were 48.5 °C and 50.3 °C, respectively. The thermal stability score in the data set with HeLa Kyoto [2] (setting [5]) came out at 2.68; with HeLa Kyoto [2] (cell cycle stage: mitosis) it was 5.04. The “solubility in G1/S (log2)” value with HeLa Kyoto [3] amounted to 0.277. For the same sequence, in the data set with HeLa Kyoto [4], the “solubility change mitosis (log2)” value is -0.113.
